According to US10441663B2, “Methods for treating cancer” (Bicycle Therapeutics Limited, priority 2016, dated 2019):
*1 amine or outer side, *2 acyl side, *3 side chain or, on linkers, in order; H or OH if unused. Where a SMILES comes first, the peptide text is derived from it. Bridges are numbered along the chain shown (N, C = ends). [ ]: non-standard residue; d: D form. The star is where a group is joined. X1 = COc1cc2cc(c1Cl)N(C)C(=O)C[C@H](OC(=O)[C@H](C)N(C)C(=O)CCSSC(C)CCC(=O)*)[C@]1(C)O[C@H]1[C@H](C)[C@@H]1C[C@@](O)(NC(=O)O1)[C@H](OC)/C=C/C=C(\C)C2; 1Nal = N[C@@H](Cc1cccc2ccccc12)C(=O)O; TBMB = c1c(C[*:1])cc(C[*:3])cc1C[*:2]; Tle = CC(C)(C)[C@H](N)C(=O)O; βAla = NCCC(=O)O; Sar = CNCC(=O)O

System: EBC-1 xenograft
Experiment: Efficacy of BT1718 in EBC-1 xenograft model (Example 1)
Format: in vivo, Mus Musculus
Details: for Tumor Size (mm^3): Mean ± SEM
Method: The objective of this study was to evaluate the anti-tumor efficacy of BT1718 in EBC-1 xenograft model in female BALB/c nude mice.
The EBC-1 tumor cells were maintained in vitro as a monolayer culture in EMEM medium supplemented with 10% heat inactivated fetal bovine serum at 37° C. in an atmosphere of 5% CO2 in air. The tumor cells will be routinely subcultured twice weekly by trypsin-EDTA treatment. The cells growing in an exponential growth phase will be harvested and counted for tumor inoculation.
Each mouse was inoculated subcutaneously at the right flank with EBC-1 tumor cells (10×10^6) in 0.2 ml of PBS for tumor development. The animals were randomized and treatment was started when the average tumor volume reaches approximately 165 mm^3 for the efficacy study.
All the procedures related to animal handling, care and the treatment in the study were performed according to the guidelines of the Association for Assessment and Accreditation of Laboratory Animal Care (AAALAC). At the time of routine monitoring, the animals were daily checked for any effects of tumor growth and treatments on normal behavior such as mobility, food and water consumption (by looking only), body weight gain/loss (body weights were measured every day), eye/hair matting and any other abnormal effect as stated in the protocol. Death and observed clinical signs were recorded on the basis of the numbers of animals within each subset.
The major endpoint was to see if the tumor growth could be delayed or mice could be cured. Tumor size was measured three times weekly in two dimensions using a caliper, and the volume was expressed in mm^3 using the formula: V=0.5 a×b^2 where a and b are the long and short diameters of the tumor, respectively. The tumor size was then used for calculations of T/C value. The T/C value (in percent) is an indication of antitumor effectiveness; T and C are the mean volumes of the treated and control groups, respectively, on a given day.
TGI was calculated for each group using the formula: TGI (%)=[1−(Ti−T0)/(Vi−V0)]×100; Ti is the average tumor volume of a treatment group on a given day, T0 is the average tumor volume of the treatment group on the day of treatment start, Vi is the average tumor volume of the vehicle control group on the same day with Ti, and V0 is the average tumor volume of the vehicle group on the day of treatment start.
Summary statistics, including mean and the standard error of the mean (SEM), are provided for the tumor volume of each group at each time point.
Statistical analysis of difference in tumor volume among the groups was conducted on the data obtained at the best therapeutic time point after the final dose.
A one-way ANOVA was performed to compare tumor volume among groups, and when a significant F-statistics (a ratio of treatment variance to the error variance) was obtained, comparisons between groups were carried out with Games-Howell test. All data were analyzed using Prism. P<0.05 was considered to be statistically significant.

Q: How did the “Body Weight (% Change)” value (4.3 mpk qd, day 0) turn out when COc1cc2cc(c1Cl)N(C)C(=O)C[C@H](OC(=O)[C@H](C)N(C)C(=O)CCSSC(C)CCC(=O)NCCC(=O)N(C)CC(=O)N(C)CC(=O)N(C)CC(=O)N(C)CC(=O)N(C)CC(=O)N(C)CC(=O)N(C)CC(=O)N(C)CC(=O)N(C)CC(=O)N(C)CC(=O)N[C@@H](C)C(=O)N[C@H]1CSCc3cc4cc(c3)CSC[C@H](NC(=O)[C@@H](C)NC(=O)[C@H](Cc3cccc5ccccc35)NC(=O)[C@H](CCC(=O)O)NC(=O)[C@H](CC(N)=O)NC(=O)[C@@H](C)NC1=O)C(=O)N[C@@H](CCC(=O)O)C(=O)N[C@@H](CC(=O)O)C(=O)N[C@@H](Cc1ccccc1)C(=O)N[C@@H](Cc1ccc(O)cc1)C(=O)N[C@@H](CC(=O)O)C(=O)N[C@@H](C(C)(C)C)C(=O)N[C@H](C(N)=O)CSC4)[C@]1(C)O[C@H]1[C@H](C)[C@@H]1C[C@@](O)(NC(=O)O1)[C@H](OC)/C=C/C=C(\C)C2 (stereo partly shown) [BT1718] ({X1-βAla}-[Sar][Sar][Sar][Sar][Sar][Sar][Sar][Sar][Sar][Sar]AC[dA]NE[1Nal][dA]CEDFYD[Tle]C-NH2; linker 12-18-25 via TBMB (inferred)) was run?
A: 0.0%

Q: And the Tumor Volume (4.3 mpk qd, day 0)?
A: 165 ± 18 mm^3

Q: And the “Body Weight” value (4.3 mpk qd, day 2)?
A: 23.9 ± 0.5 g

Q: And the “Body Weight (% Change)” value (4.3 mpk qd, day 2)?
A: −3.4 ± 1.1%

Q: What about the Tumor Volume (4.3 mpk qd, day 2) of the same compound?
A: 209 ± 7 mm^3

Q: What about the “Body Weight” value (4.3 mpk qd, day 4) of the same compound?
A: 23.6 ± 0.8 g

Q: What about the “Body Weight (% Change)” value (4.3 mpk qd, day 4) of the same compound?
A: −4.6 ± 2.0%

Q: What about the Tumor Volume (4.3 mpk qd, day 4) of the same compound?
A: 154 ± 10 mm^3

Q: And the “Body Weight” value (4.3 mpk qd, day 7)?
A: 23.7 ± 0.5 g

Q: What about the “Body Weight (% Change)” value (4.3 mpk qd, day 7) of the same compound?
A: −4.2 ± 1.3%

Q: What about the Tumor Volume (4.3 mpk qd, day 7) of the same compound?
A: 81 ± 3 mm^3

Q: What about the “Body Weight” value (4.3 mpk qd, day 9) of the same compound?
A: 23.5 ± 0.5 g

Q: What about the “Body Weight (% Change)” value (4.3 mpk qd, day 9) of the same compound?
A: −5.2 ± 1.2%

Q: What about the Tumor Volume (4.3 mpk qd, day 9) of the same compound?
A: 39 ± 3 mm^3

Q: And the “Body Weight” value (4.3 mpk qd, day 11)?
A: 24.7 ± 0.7 g

Q: And the “Body Weight (% Change)” value (4.3 mpk qd, day 11)?
A: −0.4 ± 1.7%

Q: And the Tumor Volume (4.3 mpk qd, day 11)?
A: 6 ± 3 mm^3

Q: And the “Body Weight” value (4.3 mpk qd, day 14)?
A: 23.5 ± 0.6 g

Q: What about the “Body Weight (% Change)” value (4.3 mpk qd, day 14) of the same compound?
A: −5.1 ± 1.9%

Q: What about the “T/C (%)” value (4.3 mpk qd, day 14) of the same compound?
A: 0%

Q: And the “TGI (%)” value (4.3 mpk qd, day 14)?
A: 115%

Q: What about the Tumor Volume (4.3 mpk qd, day 14) of the same compound?
A: 0 ± 0 mm^3

Q: And the “Tumor Size (mm^3)” value (4.3 mpk qd, day 14)?
A: 0 ± 0 mm^3

Q: And the “Body Weight” value (4.5 mpk biw, day 0)?
A: 24.0 ± 0.6 g

Q: What about the “Body Weight (% Change)” value (4.5 mpk biw, day 0) of the same compound?
A: 0.0%

Q: What about the Tumor Volume (4.5 mpk biw, day 0) of the same compound?
A: 161 ± 21 mm^3

Q: What about the “Body Weight” value (4.5 mpk biw, day 2) of the same compound?
A: 23.4 ± 0.6 g

Q: What about the “Body Weight (% Change)” value (4.5 mpk biw, day 2) of the same compound?
A: −2.2 ± 1.0%

Q: And the Tumor Volume (4.5 mpk biw, day 2)?
A: 239 ± 15 mm^3

Q: And the “Body Weight” value (4.5 mpk biw, day 4)?
A: 23.7 ± 0.6 g

Q: And the “Body Weight (% Change)” value (4.5 mpk biw, day 4)?
A: −1.3 ± 0.7%

Q: And the Tumor Volume (4.5 mpk biw, day 4)?
A: 276 ± 28 mm^3

Q: What about the “Body Weight” value (4.5 mpk biw, day 7) of the same compound?
A: 24.8 ± 0.7 g

Q: And the “Body Weight (% Change)” value (4.5 mpk biw, day 7)?
A: 3.3 ± 0.9%

Q: What about the Tumor Volume (4.5 mpk biw, day 7) of the same compound?
A: 296 ± 29 mm^3

Q: And the “Body Weight” value (4.5 mpk biw, day 9)?
A: 24.2 ± 0.6 g

Q: And the “Body Weight (% Change)” value (4.5 mpk biw, day 9)?
A: 1.0 ± 0.7%

Q: And the Tumor Volume (4.5 mpk biw, day 9)?
A: 285 ± 19 mm^3

Q: What about the “Body Weight” value (4.5 mpk biw, day 11) of the same compound?
A: 24.5 ± 0.7 g

Q: What about the “Body Weight (% Change)” value (4.5 mpk biw, day 11) of the same compound?
A: 2.4 ± 1.1%

Q: And the Tumor Volume (4.5 mpk biw, day 11)?
A: 254 ± 46 mm^3

Q: And the “Body Weight” value (4.5 mpk biw, day 14)?
A: 25.1 ± 0.6 g

Q: And the “Body Weight (% Change)” value (4.5 mpk biw, day 14)?
A: 5.0 ± 0.7%

Q: What about the “T/C (%)” value (4.5 mpk biw, day 14) of the same compound?
A: 23%

Q: What about the “TGI (%)” value (4.5 mpk biw, day 14) of the same compound?
A: 89%

Q: What about the Tumor Volume (4.5 mpk biw, day 14) of the same compound?
A: 285 ± 49 mm^3

Q: What about the “Tumor Size (mm^3)” value (4.5 mpk biw, day 14) of the same compound?
A: 285 ± 49 mm^3

Q: And the “Body Weight” value (4.5 mpk biw, day 16)?
A: 24.7 ± 0.8 g

Q: And the “Body Weight (% Change)” value (4.5 mpk biw, day 16)?
A: 3.1 ± 1.5%

Q: What about the Tumor Volume (4.5 mpk biw, day 16) of the same compound?
A: 331 ± 60 mm^3

Q: What about the “Body Weight” value (4.5 mpk biw, day 18) of the same compound?
A: 25.2 ± 0.8 g

Q: What about the “Body Weight (% Change)” value (4.5 mpk biw, day 18) of the same compound?
A: 5.3 ± 1.6%

Q: What about the Tumor Volume (4.5 mpk biw, day 18) of the same compound?
A: 409 ± 97 mm^3

Q: And the “Body Weight” value (4.5 mpk biw, day 21)?
A: 25.2 ± 0.7 g

Q: What about the “Body Weight (% Change)” value (4.5 mpk biw, day 21) of the same compound?
A: 5.2 ± 1.4%
